According to publication doi:10.1101/2023.05.17.541065:

T1: EIL1-GST (tomato, UniProt Q94FV4 1-610)
T1 sequence: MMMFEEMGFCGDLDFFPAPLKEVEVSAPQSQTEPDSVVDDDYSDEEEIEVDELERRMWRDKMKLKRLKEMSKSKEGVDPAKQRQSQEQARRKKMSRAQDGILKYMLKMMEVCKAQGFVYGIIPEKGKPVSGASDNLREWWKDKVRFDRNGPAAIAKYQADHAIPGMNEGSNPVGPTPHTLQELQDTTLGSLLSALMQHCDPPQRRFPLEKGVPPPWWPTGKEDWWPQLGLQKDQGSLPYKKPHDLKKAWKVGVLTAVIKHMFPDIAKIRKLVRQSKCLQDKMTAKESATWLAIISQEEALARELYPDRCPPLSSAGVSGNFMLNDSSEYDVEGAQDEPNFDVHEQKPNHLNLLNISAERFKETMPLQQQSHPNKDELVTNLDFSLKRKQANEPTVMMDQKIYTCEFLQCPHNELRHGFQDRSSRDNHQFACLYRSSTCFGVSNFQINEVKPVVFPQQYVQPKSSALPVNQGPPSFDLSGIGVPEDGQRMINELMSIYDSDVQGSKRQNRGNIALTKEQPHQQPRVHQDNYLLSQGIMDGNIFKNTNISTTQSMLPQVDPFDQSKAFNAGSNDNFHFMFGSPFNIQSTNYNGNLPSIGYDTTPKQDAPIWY


Tests used:
EIL1-GST = target: T1, EIL1-GST; test: EMSA
MYC2-TF = MYC2-TF (tomato, UniProt A0A3Q7HRZ6 1-689); test: EMSA
MYC2-TF, sequence (A0A3Q7HRZ6 whole entry): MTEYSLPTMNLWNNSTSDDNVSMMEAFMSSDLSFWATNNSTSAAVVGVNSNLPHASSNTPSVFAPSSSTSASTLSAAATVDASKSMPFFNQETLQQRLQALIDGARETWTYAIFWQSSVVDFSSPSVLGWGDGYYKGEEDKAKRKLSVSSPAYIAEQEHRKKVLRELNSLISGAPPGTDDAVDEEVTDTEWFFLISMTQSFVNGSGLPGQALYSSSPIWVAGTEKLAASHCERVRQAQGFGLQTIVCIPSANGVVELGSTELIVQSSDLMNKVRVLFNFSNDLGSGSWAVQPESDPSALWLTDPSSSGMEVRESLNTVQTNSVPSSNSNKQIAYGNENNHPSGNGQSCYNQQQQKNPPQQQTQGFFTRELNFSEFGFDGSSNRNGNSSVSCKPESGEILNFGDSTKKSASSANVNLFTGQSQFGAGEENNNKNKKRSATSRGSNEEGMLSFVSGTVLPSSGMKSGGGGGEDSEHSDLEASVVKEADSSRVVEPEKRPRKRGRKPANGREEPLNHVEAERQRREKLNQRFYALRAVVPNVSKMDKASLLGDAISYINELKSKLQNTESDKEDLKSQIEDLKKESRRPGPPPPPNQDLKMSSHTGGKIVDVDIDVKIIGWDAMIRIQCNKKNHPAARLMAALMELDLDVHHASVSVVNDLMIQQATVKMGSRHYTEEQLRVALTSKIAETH

Binder | binding result (EIL1-GST) | binding result (MYC2-TF)
CYP94C1 promoter EBS probe (dsDNA) DNA 1: TGTGTCTTTTTTCAATAAAGGTGATGTATCGGGACAAGATGCATCGGACGCTG DNA 2: CAGCGTCCGATGCATCTTGTCCCGATACATCACCTTTATTGAAAAAAGACACA | binds | 
CYP94B promoter G-box probe (dsDNA) DNA 1: TTTACGCGCACAAGAAACACGTGATTTAAATGCATAATTA DNA 2: TAATTATGCATTTAAATCACGTGTTTCTTGTGCGCGTAAA |  | binds
